Experiments:
igf1r_human IGF1R [1] = target: igf1r_human IGF1R (UniProt P08069)
erbb4_human ERBB4 = erbb4_human ERBB4 (UniProt Q15303)
fgfr2_human FGFR2 = fgfr2_human FGFR2 (UniProt P21802)
fgfr4_human FGFR4 = fgfr4_human FGFR4 (UniProt P22455)
vgfr2_human KDR = vgfr2_human KDR (UniProt P35968)
igf1r_human IGF1R [2] = target: igf1r_human IGF1R (UniProt P08069); remark: listed apart in the source
grb2_human GRB2 = grb2_human GRB2 (UniProt P62993)
Chain of grb2_human GRB2 (P62993 whole entry, looked up): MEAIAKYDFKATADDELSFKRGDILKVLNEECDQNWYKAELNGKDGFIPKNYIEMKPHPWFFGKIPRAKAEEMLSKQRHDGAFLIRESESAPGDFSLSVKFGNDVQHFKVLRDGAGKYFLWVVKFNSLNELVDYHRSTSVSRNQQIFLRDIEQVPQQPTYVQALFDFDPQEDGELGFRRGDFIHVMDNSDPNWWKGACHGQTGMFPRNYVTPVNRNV

Chain of Tyrosine-protein phosphatase non-receptor type 6 (Homo sapiens), P29350 C453S (P29350 whole entry C453S): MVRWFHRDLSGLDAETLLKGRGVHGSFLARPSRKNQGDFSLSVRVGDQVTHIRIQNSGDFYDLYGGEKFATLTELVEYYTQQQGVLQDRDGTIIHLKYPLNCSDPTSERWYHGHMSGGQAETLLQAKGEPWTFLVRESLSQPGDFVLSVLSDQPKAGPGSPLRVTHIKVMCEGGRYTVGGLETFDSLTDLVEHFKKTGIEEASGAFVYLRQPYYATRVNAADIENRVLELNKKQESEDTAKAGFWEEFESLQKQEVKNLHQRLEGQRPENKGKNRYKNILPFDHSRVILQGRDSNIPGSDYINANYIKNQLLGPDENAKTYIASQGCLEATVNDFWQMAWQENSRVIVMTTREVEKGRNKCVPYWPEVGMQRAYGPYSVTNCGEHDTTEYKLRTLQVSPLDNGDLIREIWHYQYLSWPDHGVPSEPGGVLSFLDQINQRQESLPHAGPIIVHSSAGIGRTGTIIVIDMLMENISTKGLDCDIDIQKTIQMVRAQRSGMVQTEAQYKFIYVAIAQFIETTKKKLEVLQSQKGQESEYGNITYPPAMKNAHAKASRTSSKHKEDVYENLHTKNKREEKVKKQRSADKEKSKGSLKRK
Chain of Tyrosine-protein phosphatase non-receptor type 6 (Homo sapiens), P29350 D419A;C453S (P29350 whole entry D419A/C453S): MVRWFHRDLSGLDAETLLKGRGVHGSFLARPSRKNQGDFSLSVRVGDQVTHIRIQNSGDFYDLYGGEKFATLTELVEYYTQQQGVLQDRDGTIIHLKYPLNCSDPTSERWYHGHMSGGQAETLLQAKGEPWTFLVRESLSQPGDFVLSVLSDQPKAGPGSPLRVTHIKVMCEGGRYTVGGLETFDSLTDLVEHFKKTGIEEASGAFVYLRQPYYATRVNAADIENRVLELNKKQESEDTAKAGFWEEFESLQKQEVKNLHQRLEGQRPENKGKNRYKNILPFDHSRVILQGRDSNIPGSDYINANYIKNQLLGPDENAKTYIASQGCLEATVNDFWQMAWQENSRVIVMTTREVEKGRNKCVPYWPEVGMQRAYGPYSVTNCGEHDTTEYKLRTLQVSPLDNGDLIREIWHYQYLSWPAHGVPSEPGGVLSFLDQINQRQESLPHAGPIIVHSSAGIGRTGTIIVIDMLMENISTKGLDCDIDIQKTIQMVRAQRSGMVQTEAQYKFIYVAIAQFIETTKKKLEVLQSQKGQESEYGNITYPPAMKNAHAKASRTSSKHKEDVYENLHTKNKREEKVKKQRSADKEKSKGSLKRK
Chain of igf1r_human IGF1R (P08069 whole entry, looked up): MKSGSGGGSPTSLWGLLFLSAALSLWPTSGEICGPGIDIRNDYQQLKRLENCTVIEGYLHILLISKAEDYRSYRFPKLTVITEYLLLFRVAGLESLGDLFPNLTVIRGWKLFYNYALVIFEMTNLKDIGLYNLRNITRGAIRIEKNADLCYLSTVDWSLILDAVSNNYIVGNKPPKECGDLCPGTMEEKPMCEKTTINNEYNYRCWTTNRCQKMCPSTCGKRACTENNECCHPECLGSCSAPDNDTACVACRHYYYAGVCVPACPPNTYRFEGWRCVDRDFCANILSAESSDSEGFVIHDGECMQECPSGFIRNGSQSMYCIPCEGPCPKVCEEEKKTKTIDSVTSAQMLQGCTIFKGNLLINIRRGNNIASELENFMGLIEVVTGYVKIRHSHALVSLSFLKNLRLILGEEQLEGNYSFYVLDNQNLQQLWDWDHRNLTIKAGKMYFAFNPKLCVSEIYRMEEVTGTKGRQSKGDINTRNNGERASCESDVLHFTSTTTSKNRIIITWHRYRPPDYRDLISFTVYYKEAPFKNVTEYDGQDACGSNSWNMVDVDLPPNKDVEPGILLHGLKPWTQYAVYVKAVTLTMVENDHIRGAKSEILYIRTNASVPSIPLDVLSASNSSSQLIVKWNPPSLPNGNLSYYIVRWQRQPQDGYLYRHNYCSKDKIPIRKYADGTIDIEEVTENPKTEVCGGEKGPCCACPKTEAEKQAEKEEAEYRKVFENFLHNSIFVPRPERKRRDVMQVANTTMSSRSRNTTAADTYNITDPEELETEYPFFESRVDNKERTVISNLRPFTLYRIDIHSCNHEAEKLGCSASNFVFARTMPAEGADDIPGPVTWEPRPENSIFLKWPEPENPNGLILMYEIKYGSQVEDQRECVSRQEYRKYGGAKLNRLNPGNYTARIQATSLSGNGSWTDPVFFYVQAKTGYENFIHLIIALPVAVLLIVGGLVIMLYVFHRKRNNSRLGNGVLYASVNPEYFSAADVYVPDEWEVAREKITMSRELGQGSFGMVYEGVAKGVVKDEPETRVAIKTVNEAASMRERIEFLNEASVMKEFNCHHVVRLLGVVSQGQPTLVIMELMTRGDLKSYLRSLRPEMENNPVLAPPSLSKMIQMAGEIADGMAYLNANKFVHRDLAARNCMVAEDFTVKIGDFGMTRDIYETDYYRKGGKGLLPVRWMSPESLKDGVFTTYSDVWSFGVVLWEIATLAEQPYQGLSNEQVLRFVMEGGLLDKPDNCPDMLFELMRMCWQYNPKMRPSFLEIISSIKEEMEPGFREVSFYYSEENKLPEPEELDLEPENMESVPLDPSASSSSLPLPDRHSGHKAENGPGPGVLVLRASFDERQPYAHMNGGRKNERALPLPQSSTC
Chain of fgfr2_human FGFR2 (P21802 whole entry, looked up): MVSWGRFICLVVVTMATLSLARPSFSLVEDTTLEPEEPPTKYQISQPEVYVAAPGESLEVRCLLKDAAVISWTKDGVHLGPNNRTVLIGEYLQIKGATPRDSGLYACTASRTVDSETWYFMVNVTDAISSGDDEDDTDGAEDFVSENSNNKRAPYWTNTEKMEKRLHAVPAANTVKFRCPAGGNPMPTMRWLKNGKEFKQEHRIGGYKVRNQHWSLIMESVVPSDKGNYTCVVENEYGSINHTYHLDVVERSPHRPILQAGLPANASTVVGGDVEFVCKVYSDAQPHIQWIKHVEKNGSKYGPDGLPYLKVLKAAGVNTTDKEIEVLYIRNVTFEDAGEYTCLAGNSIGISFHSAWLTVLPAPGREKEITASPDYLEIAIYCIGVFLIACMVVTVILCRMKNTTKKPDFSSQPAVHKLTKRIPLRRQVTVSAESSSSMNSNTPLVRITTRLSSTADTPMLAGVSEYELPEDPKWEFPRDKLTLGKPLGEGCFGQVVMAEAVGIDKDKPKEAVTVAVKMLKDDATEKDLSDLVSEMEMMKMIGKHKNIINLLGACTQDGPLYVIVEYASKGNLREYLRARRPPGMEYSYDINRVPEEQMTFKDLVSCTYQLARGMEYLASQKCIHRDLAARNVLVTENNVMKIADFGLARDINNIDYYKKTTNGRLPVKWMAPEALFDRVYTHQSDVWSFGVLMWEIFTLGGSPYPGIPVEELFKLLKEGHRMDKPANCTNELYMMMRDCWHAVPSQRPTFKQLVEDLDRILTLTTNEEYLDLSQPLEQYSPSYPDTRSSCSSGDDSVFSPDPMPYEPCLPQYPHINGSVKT
Chain of fgfr4_human FGFR4 (P22455 whole entry, looked up): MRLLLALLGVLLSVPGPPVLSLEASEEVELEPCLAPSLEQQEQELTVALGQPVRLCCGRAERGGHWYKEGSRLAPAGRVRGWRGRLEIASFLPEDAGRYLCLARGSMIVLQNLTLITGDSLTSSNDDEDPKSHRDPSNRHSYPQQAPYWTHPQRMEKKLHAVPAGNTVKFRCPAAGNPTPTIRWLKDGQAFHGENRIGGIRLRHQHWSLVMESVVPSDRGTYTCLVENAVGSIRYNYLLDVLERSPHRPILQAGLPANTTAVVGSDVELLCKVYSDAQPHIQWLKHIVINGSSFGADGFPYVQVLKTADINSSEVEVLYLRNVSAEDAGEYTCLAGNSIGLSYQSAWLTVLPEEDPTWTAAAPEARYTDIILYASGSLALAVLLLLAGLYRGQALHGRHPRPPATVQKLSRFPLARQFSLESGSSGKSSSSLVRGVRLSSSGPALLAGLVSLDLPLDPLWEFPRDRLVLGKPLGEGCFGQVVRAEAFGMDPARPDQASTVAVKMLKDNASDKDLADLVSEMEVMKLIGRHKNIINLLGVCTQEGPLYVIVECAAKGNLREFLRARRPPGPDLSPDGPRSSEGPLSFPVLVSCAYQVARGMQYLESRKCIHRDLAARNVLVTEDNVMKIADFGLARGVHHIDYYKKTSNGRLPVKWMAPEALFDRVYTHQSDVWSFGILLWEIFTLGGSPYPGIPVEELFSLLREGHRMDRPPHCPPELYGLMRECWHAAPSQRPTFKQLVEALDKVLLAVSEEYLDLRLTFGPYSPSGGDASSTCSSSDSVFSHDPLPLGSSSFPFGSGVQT

Row | Substance | effect of a mutation on the interaction (igf1r_human IGF1R [1]) | effect of a mutation on the interaction (erbb4_human ERBB4) | effect of a mutation on the interaction (fgfr2_human FGFR2) | effect of a mutation on the interaction (fgfr4_human FGFR4) | effect of a mutation on the interaction (vgfr2_human KDR) | effect of a mutation on the interaction (igf1r_human IGF1R [2]) | effect of a mutation on the interaction (grb2_human GRB2)
1 | Tyrosine-protein phosphatase non-receptor type 6 (Homo sapiens), P29350 D419A;C453S | decreasing interaction | with no effect | with no effect | with no effect | with no effect | with no effect | 
2 | Tyrosine-protein phosphatase non-receptor type 6 (Homo sapiens), P29350 C453S | decreasing interaction | with no effect | with no effect | with no effect | with no effect |  | 
3 | Receptor-type tyrosine-protein phosphatase alpha (Homo sapiens) (from UniProt P18433) Y798F |  |  |  |  |  |  | decreasing interaction

From IntAct's records for PubMed 28065597
